Data set [1] relates to FoxP1 ZIP-lin-FKH (human). The data set can be described thus: fluorescence anisotropy. As to conditions: 200 nM labeled DNA, protein 0-500 nM; 'standard buffer' (composition, salt and pH not in material); dimerization assays at 37 C, DNA-binding temperature not stated; ex 480 nm, em 525 nm. On the technique in general: In fluorescence polarisation assays a small probe gives low polarisation when free and higher when bound to something large.

For the next data set, the system named is FoxP1 FKH domain (human). The data set can be described thus: fluorescence anisotropy. As to conditions: 200 nM labeled DNA, protein 0-500 nM; 'standard buffer' (composition, salt and pH not in material); dimerization assays at 37 C, DNA-binding temperature not stated; ex 480 nm, em 525 nm.
Data set [2] addresses FoxP1 ZIP-lin (leucine zipper domain with the linker, residues 342-462), unlabeled wild type (human) (UniProt Q9H334). The data set can be described thus: SEC; Superdex 75 increase, 20 mM HEPES pH 7.8, 150 mM NaCl; unlabeled protein at 10 µM; molecular weight from a calibration curve with known proteins. A general note: Size exclusion chromatography separates by hydrodynamic size, large species first.

Data set [3] addresses FoxP1 ZIP(A356C)-lin labeled with BODIPY FL (human) (UniProt Q9H334). The data set can be described thus: fluorescence polarisation; fluorescence anisotropy; 5 nM BODIPY FL-labeled single-cysteine protein titrated with its unlabeled wild-type construct (0-5000 nM ZIP-lin, 0-200 nM ZIP-lin-FKH), 37 °C; two-state model, monomer-dimer equilibrium; duplicates.
Data set [4] has as its target FoxP1 ZIP-lin-FKH (leucine zipper, linker and Forkhead domain, residues 342-548), unlabeled wild type (human) (UniProt Q9H334). The data set can be described thus: SEC; Superdex 75 increase, 20 mM HEPES pH 7.8, 150 mM NaCl; unlabeled protein at 10 µM; molecular weight from a calibration curve with known proteins.
The target of data set [5] is FoxP1 ZIP(A356C)-lin-FKH labeled with BODIPY FL (human) (UniProt Q9H334). As to the kind of experiment: fluorescence polarisation; fluorescence anisotropy; 5 nM BODIPY FL-labeled single-cysteine protein titrated with its unlabeled wild-type construct (0-5000 nM ZIP-lin, 0-200 nM ZIP-lin-FKH), 37 °C; two-state model, monomer-dimer equilibrium; duplicates.
Data set [6] has the same target. The data set can be described thus: fluorescence polarisation; fluorescence anisotropy; 5 nM labeled monomer preincubated with 10 nM unlabeled DNA, then titrated with unlabeled wild-type ZIP-lin-FKH that was previously denatured to ensure the monomeric form; apparent KD; monomer-dimer equilibrium.

As for FoxP1 FKH cognate DNA, Alexa488-labeled, the Kd in data set [1] stood at 170 nM; in the data set on FoxP1 FKH domain (human), 176 nM.
Substance “FoxP1 ZIP-lin (leucine zipper domain with the linker, residues 342-462), unlabeled wild type (from UniProt Q9H334 342-462) (domain or fragment)” came in with a stoichiometry N in data set [2] of 2. Besides, in data set [3], the Kd worked out at 123 nM.
“FoxP1 ZIP-lin-FKH (leucine zipper, linker and Forkhead domain, residues 342-548), unlabeled wild type (from UniProt Q9H334 342-548) (domain or fragment)” returned a stoichiometry N in data set [4] of 2. Moreover, the Kd was 29 nM in data set [5] and 55 nM in data set [6].

For orientation: stoichiometry N means a count of units in the complex or per binding partner.

Values taken from paper PMC10188207.
